In patent US20210246218A1 (LYVGEN BIOPHARMA SUZHOU, published 2021):
Several values for one entry are separate records, joined by “and”; a condition that tells them apart may be missing. Identical values can stand only once.

Legend:
[1] = target: T1, human FcγRI on CHO-K1 cells (human, UniProt P12314 16-374); experiment: flow cytometry on CHO-huFcγRIA cells, PE anti-human Fc F(ab')2
T1 construct: whole, on cells; also called CHO-K1-huFcγRI; CHO-huFcγRIA
Method: The plate was mixed and incubated in the dark for 2 hours at 4° C. […] The plate was incubated in the dark for another 1 hour at 4° C. The cells were washed 2 times by centrifugation at 1000 g for 3 min and resuspended in ice cold assay buffer containing 2% PFA.

[2] = target: T2, recombinant cynomolgus monkey CD137 receptor protein (cynomolgus monkey, UniProt A9YYE7 24-186); experiment: ELISA, cynomolgus CD137 protein coated; average, n=6
T2 construct: Coated on ELISA plates; also called Cyno CD137
T2 sequence (A9YYE7 entry or part of it): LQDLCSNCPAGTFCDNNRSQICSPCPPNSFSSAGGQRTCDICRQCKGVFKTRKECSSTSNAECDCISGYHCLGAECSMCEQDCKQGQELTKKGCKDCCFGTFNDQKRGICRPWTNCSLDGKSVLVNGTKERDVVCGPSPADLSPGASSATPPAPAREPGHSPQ
Method: The human or cynomolgus monkey CD137 receptor protein was diluted in DPBS to 1 μg/mL, and then coated onto an ELISA plate (Corning, Catalog number: 9018, high binding) with a volume of 100 μL (0.1 μg) or 50 μL (0.05 μg) per well, and incubated at 4° C. overnight. The plate was decanted and washed once; assay diluent was added 200 μL/well. After a one-hour incubation at room temperature, the plate was washed with PBST one time. […] The plate was incubated one hour at room temperature and then washed three times with PBST. Goat anti-human IgG-H+L HRP conjugated at 1:100,000 dilution was added to the plate at 100 μL/well. The plate was then incubated one hour at room temperature followed by washing with PBST four times. The TMB substrate solution was added at 100 μL/well. The color was allowed to develop for 15 minutes, and was stopped with 100 μL/well 2N H₂SO₄. Absorbance at 450 nm and 620 nm was determined by a Tecan F200 Pro reader.
Graphpad 7.0, “[Agonist] vs. response—Variable slope (four parameters)” was used to plot the binding data and calculate binding EC₅₀ values.

[3] = target: T3, human CD137 on cells (human, UniProt Q07011 24-255); experiment: flow cytometry on CHO cells over-expressing human CD137; average, n=6
T3 construct: whole, on cells; also called CHO-human CD137; CHO cells over-expressing human CD137
T3 sequence (Q07011 24-255): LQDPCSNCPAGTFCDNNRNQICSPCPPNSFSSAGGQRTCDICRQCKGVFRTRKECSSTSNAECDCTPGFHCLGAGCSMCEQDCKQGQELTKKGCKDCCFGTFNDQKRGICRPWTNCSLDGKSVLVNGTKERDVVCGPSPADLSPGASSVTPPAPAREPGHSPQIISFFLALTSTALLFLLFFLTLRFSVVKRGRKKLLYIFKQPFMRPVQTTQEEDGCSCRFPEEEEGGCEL
Method: (§1) CHO cells over-expressing human or cynomolgus monkey CD137 and CHO parental cells were harvested by centrifugation at 1000 g for 3 minutes. The cells were resuspended in ice cold assay buffer at 2*10\hat{ }6/mL and transferred to 96-well V-bottom plate with 100 μL/well. […] The plate was mixed and incubated in the dark for 2 hours at 4° C. The cells were washed 3 times by centrifugation at 1000 g for 3 min and resuspended in ice cold assay buffer containing goat F(ab′)₂ anti-human IgG-Fc (PE), 100 μL/well. The plate was incubated in the dark for another 1 hour at 4° C. The cells were washed 2 times by centrifugation at 1000 g for 3 min and resuspended in ice cold assay buffer containing 2% PFA. The cells were then subjected to the flow cytometer immediately.
(§2) Mean fluorescence intensity (MFI) was calculated from the total cell population in the FCM experiments. Graphpad 7.0, “[Agonist] vs. response—Variable slope (four parameters)” was used to plot the binding MFI in dose response and to calculate FCM binding EC₅₀ values.

[4] = target: T4, human FcγRIIIA-Phe158 on CHO-K1 cells (human, UniProt P08637 17-254); experiment: flow cytometry on CHO-huFcγRIIIA cells, PE anti-human Fc F(ab')2
T4 construct: whole, on cells; also called CHO-K1-huFcγRIIIA-Phe158; CHO-huFcγIIIA
T4 sequence (P08637 17-254): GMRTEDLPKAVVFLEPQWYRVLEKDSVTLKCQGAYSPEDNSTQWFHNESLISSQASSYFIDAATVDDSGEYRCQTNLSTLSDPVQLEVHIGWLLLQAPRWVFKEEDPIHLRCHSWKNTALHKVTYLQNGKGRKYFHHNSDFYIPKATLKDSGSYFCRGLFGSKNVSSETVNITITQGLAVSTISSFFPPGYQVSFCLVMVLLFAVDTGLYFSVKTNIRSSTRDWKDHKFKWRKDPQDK
Method: (§3) The plate was mixed and incubated in the dark for 2 hours at 4° C.

[5] = target: T3, human CD137 on cells; experiment: flow cytometry on CHO-human CD137 cells, PE anti-human IgG-Fc
Method: as §1, §2

[6] = target: T5, human FcγRIIB-Ile232 on CHO-K1 cells (human, UniProt P31994 43-310); experiment: flow cytometry on CHO-huFcγRIIB cells, anti-human Fc F(ab')2
T5 construct: whole, on cells; also called CHO-K1-huFcγRIIB-Ile232; CHO-K1-huFcγRIIB
T5 sequence (looked up): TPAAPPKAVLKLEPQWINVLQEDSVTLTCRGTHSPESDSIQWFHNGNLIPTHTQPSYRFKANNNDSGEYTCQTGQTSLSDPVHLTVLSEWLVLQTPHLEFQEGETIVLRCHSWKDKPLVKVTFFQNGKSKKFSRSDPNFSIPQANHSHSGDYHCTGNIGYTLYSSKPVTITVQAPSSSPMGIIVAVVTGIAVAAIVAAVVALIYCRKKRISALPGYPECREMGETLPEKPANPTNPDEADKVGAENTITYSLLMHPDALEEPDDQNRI
Method: as §3

[7] = target: T6, Ly110; experiment: ELISA, clone 3712-IgG1v coated, CD137 protein titrated (EC50 is a concentration of the CD137 protein); full sigmoid, plateau about 1.9
T6 chain: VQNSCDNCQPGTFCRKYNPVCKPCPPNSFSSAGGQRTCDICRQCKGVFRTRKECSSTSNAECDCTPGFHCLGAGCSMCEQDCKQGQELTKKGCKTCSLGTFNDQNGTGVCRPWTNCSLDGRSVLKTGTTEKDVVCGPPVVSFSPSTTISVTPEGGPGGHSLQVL
Method: The plate was decanted and washed once; assay diluent was added 200 μL/well. After one-hour incubation at room temperature, the plate was washed with PBST one time. CD137 receptor human/mouse chimeras were diluted in assay diluent to 100 or 10 μg/mL, and then a 4-fold serial dilution in assay diluent for 11 points to final concentrations of 100000, 25000, 6250, 1562.5, 390.63, 97.66, 24.41, 6.10, 1.53, 0.38 and 0.095 ng/mL or 10000, 2500, 625, 156.25, 39.06, 9.77, 2.44, 0.61, 0.15, 0.038 and 0.0095 ng/mL. The diluted CD137 receptor was added to the assay plate, 50 μL/well, in duplicate. The plate was incubated one hour at room temperature and then washed three times with PBST. Goat anti-human IgG-H+L HRP conjugated at 1:100,000 20 dilution was added to the plate at 100 μL/well. The plate was then incubated one hour at room temperature followed by washing with PBST four times. The TMB substrate solution was added at 100 μL/well. The color was allowed to develop for 15 minutes, and was stopped with 100 μL/well 2N H2SO4. Absorbance at 450 nm and 620 nm was determined by a Tecan F200 Pro reader.

[8] = target: T7, cynomolgus monkey CD137 on cells (cynomolgus monkey, UniProt A9YYE7 24-254); experiment: flow cytometry on CHO-cynomolgus monkey CD137 cells, PE anti-human IgG-Fc
T7 construct: whole, on cells; also called CHO-cynomolgus monkey CD137
T7 sequence (A9YYE7 entry or part of it): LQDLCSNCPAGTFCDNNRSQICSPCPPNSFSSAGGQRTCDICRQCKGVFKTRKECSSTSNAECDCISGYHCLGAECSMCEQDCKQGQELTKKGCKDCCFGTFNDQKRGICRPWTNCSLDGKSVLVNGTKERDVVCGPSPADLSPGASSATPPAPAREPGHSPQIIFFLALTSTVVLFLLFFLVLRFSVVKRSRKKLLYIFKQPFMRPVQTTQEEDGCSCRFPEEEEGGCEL
Method: as §1, §2

T1 sequence (P12314 16-374): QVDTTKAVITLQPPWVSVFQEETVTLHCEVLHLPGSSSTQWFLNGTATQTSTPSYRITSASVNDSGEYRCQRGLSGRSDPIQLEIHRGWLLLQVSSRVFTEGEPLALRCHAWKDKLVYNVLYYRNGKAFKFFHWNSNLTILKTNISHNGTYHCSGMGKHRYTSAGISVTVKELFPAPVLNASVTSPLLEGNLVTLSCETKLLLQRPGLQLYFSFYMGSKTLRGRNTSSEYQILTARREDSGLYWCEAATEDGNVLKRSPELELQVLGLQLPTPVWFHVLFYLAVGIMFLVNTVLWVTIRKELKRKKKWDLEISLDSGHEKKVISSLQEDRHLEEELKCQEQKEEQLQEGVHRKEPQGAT

binding result [1]: no binding (tested: 10 µg/mL)
EC50 [2]: 0.33 nM and 0.0474 µg/mL
EC50 [3]: 0.35 nM and 0.0497 µg/mL
binding result [4]: no binding (tested: 100 µg/mL)
EC50 (read off the curve) [5]: ~0.05 µg/mL
binding result [6]: binds
EC50 [7]: 0.101 µg/mL
EC50 (read off the curve) [8]: ~0.03 µg/mL
B1: Clone 3712-IgG1v (IgG1v/kappa) (antibody)
heavy: QVQLVQSGAEVKKPGASVKVSCKASGYTFAGFEMHWVRQAPGQGLEWMGAIDPKTGGTDYNQKFKDRVTMTRDTSISTAYMELSRLRSDDTAVYYCARDLGYFDVWGQGTLVTVSSASTKGPSVFPLAPSSKSTSGGTAALGCLVKDYFPEPVTVSWNSGALTSGVHTFPAVLQSSGLYSLSSVVTVPSSSLGTQTYICNVNHKPSNTKVDKKVEPKSCDKTHTCPPCPAPELLGPSVFLFPPKPKDTLMISRTPEVTCVVVDVEHEDPEVKFNWYVDGVEVHNAKTKPREEQYNSTYRVVSVLTVLHQDWLNGKEYKCKVSNKALPAPIEKTISKAKGQPREPQVYTLPPSREEMTKNQVSLTCLVKGFYPSDIAVEWESNGQPENNYKTTPPVLDSDGSFFLYSKLTVDKSRWQQGNVFSCSVMHEALHNHYTQKSLSLSPGK
light: DIQMTQSPSSLSASVGDRVTITCRASQDIRSNLNWYQQKPGGAVKLLIYYTSRLHSGVPSRFSGSGSGTDYTLTISSLQPEDFATYFCQQSEKLPRTFGGGTKVEIRRTVAAPSVFIFPPSDEQLKSGTASVVCLLNNFYPREAKVQWKVDNALQSGNSQESVTEQDSKDSTYSLSSTLTLSKADYEKHKVYACEVTHQGLSSPVTKSFNRGEC
notes: copies: 2 + 2
